Results: the supplement of paper PMC10567573

B1: BEX1 (parent)
chain: EENMERIGEEVRQLMEKLREKQLS
B2: TMEM106C (parent)
chain: TVPEILVHNIVIFMRTSVKISYIG

Variants of: B1
Assay: protein stability index of a GFP-peptide fusion (GPS, HEK-293T) (PSI 1-6); higher = more stable
Settings: c terminus: a fixed tail appended
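Further: lentivirally expressed fusions sorted by FACS into six bins by GFP to DsRed ratio, PSI derived from sequencing read proportions per bin multiplied by bin number.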

Protein stability index, by site and new letter:
M15: W 3.71 | L 4.98 | P 5.5 | F 4.08 | A 2.64 | I 4.87 | N 3.02 | Y 4.89 | E 4.89 | V 3.78 | T 5.18
E1: I 4.77 | Q 4.41 | F 4.32 | R 3.55 | D 2.37 | T 4.56 | N 4.31 | C 4.29 | L 3.54 | Y 4.14 | S 4 | K 3.81
V11: M 4.63 | T 4.5 | R 5.38 | L 4.68 | P 5.37 | C 4.19 | S 3.41 | F 4.25 | H 5.86 | K 5.09 | D 5.92 | G 5.64 | N 5.46
L14: Y 4.58 | V 4.97 | M 3.38 | R 5.59 | Q 5.03 | N 5.76 | I 4.06 | H 5.03 | C 4.33 | W 4.7
L18: C 3.82 | H 5.04 | W 4.84 | K 5.26 | P 5.86 | I 4.48 | E 5.35 | T 5.53 | M 4.59
K21: F 4.64 | C 1.67 | D 4.97 | E 3.26 | A 4.11 | H 3.15
E2: Y 3.72 | P 4.34 | M 4.05 | C 4.07 | R 4.55 | F 4.46 | I 4 | S 4.23 | A 2.97 | D 4.48 | W 4.53 | H 4.37 | Q 4.2 | K 3.64
M4: K 5.35 | R 4.75 | G 5.48 | Y 4.55 | L 4.16 | T 5.03 | E 5.3 | P 5.96 | D 4.81 | H 5.09 | Q 3.58 | S 5.45 | I 4.28
E20: H 3.74 | L 4.29 | S 4.57 | W 2.19 | F 2.75 | R 4.46
E16: C 3.87 | N 4.45 | H 4.49 | K 4.32 | W 2.85 | V 3.31 | R 3.89 | P 2.69
R12: F 4.12 | I 4.22 | S 4.85 | K 4.78 | L 3.77 | H 5.45 | P 5.1 | C 4.43 | M 4.62 | N 4.1 | V 5.27
G8: C 4.73 | H 4.09 | Q 4.36 | R 4.18 | L 3.33 | W 3.44 | Y 4.5 | T 4.55 | S 4.47 | I 3.62 | K 4.32 | E 4.04 | A 3.25
I7: G 4.97 | C 4.87 | H 5.86 | F 4.78 | Y 4.92 | Q 5.33 | L 4.74 | K 4.23 | T 5.18 | R 5.16 | M 4.83 | S 5.17
Q13: C 4.53 | E 5.38 | W 3.37 | T 3.45 | G 5.2 | P 4.79 | M 4.5 | H 4.04 | I 4.23
N3: C 3.89 | P 4.71 | F 4.74 | T 3.84 | R 3.79 | A 3.99 | Q 3.94 | W 4.32 | D 3.5 | G 5.04
E10: S 4.31 | A 3.09 | Y 4.13 | P 4.75 | M 3.51 | G 4.24 | H 4 | R 2.79 | L 4.63 | T 3.96 | W 3.67 | F 2.91 | K 3.89 | D 4.76
E5: Q 4.01 | W 3.31 | V 3.3 | C 3.74 | N 4.96 | R 4.33 | L 3.89 | P 4.77 | A 4.28 | F 4.54
R19: K 4.74 | F 3.95 | L 2.82 | S 4.21 | E 5.31 | H 5.32 | Y 3.92 | N 5.13 | P 5.54 | T 4.76 | A 4.72
K17: Q 4.38 | D 4.76 | G 4.86 | I 3.76 | W 4.17
E9: A 4.76 | P 4.98 | I 4.39 | D 3.63 | G 4.67 | K 4.2 | Y 4.17 | S 4.51 | N 4.02 | F 3.7 | V 4.07
R6: T 4.85 | V 4.81 | P 5.03 | K 4.8 | A 4.94 | H 5.43 | Y 4.57 | I 3.92 | G 5.28 | N 3.84 | Q 4.04 | C 4.25 | F 3.72 | W 4.69 | E 5.71

Variants of: B2
Assay: as above
Settings: c terminus: a fixed tail appended

Protein stability index, by site and new letter:
I23: K 4.25 | N 3.26 | Q 4.15 | V 2.4
L6: N 2.24 | T 2.83 | A 3.67 | S 2.77
T16: A 1.5 | L 3.11
E4: S 2.88 | D 3.56 | L 3.55 | H 2.29
F13: D 2.85 | N 3.17 | T 2.99
I10: H 3.4 | A 3.07 | P 2.49
V11: W 2.85 | R 2.22 | E 3.64 | C 3.91 | T 3.11 | F 4.1 | Y 2.44 | M 2.77 | L 1.78
G24: R 3.06 | A 2.22 | I 3.38
Y22: R 3.04 | D 2.46 | N 3.33 | T 2.84 | Q 3.85 | I 4.35 | A 3.58 | K 2.86 | F 2.35
V2: K 2.81 | I 2.67 | F 2.95
K19: I 3.18 | P 2.88 | S 3.4
T1: M 3.02 | S 3.42 | I 4.36 | D 1.51
I5: Q 3.61 | H 4.38 | P 3.34
S21: Q 2.04 | E 3.24 | T 3.42
V18: H 2.13 | P 2.92 | M 3.05 | T 3.66
S17: G 2.1 | E 3.3 | R 3.66 | Y 3 | F 4.33
N9: T 2.49 | D 3.55 | G 2.98 | K 2.02 | R 2.94 | L 3.14 | S 2.31
I12: T 2.07 | V 2.64 | H 3.33 | N 3.08 | Q 2.11 | K 2.81 | M 2.29
P3: C 2.32 | A 3.18
M14: N 3.25 | V 2.68 | D 3.11 | E 3.79 | R 2.21 | P 3.45 | F 2.97
H8: F 3.98 | N 3.21
V7: C 3.89 | Y 3.26 | Q 3.02 | D 2.53 | K 3.79 | F 2.51 | G 3.49
I20: Y 3.86 | A 2.52 | R 2.13 | T 3.24 | C 3.79 | L 3.56 | D 3.71 | G 3.25
R15: H 2.94 | S 3.18 | V 3.67 | N 3.2 | D 2.57
